Source: patent publication US20250186614A1, “COMPACT DRUG RESPONSIVE DOMAINS FOR REGULATION OF FUNCTION/ABUNDANCE AND DELIVERY OF POLYPEPTIDE PAYLOADS” (OBSIDIAN THERAPEUTICS, INC., priority 2022, published 2025)
Read-outs that look alike come from different tables or passages of the source.

Experiments:
[1] = Example 4: dose response of FKBP constructs 160-255, Ec50, Ec90 and fold change (raw and normalized to mCherry); format: cell-based; conditions: for FC (fold change): fold change during initial analysis
Experimental: Additional experiments were performed for constructs FKBP-160-292.

Jurkat cells = assay: Tacrolimus dose response of FKBP13-AcGFP-mCherry constructs stably transduced into Jurkat cells, GFP MFI by flow cytometry; format: cell-based; parameters: Basal: unit not given here; conditions: for Fold Change: Jurkat cells, Table 13
Outline: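 Jurkat E6-1 cells lentivirally transduced with FKBP13-AcGFP-mCherry constructs to 10-25% mCherry+ (day 5) were dosed with tacrolimus. GFP geometric MFI in mCherry+ cells was measured by flow cytometry and fitted to dose-response curves.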

[2] = FKBP constructs 160-255, not normalized, read-out: EC90
[3] = normalized to mCherry, read-out: EC90 (Norm)

Row | Molecule | EC90 [1, 2] | FC (fold change) [1] | EC90 [1, 3] | Basal (Jurkat cells; FIG. 41) | FC (Jurkat cells; FIG. 41) | Peak (Jurkat cells; FIG. 41) | Basal (Jurkat cells; FIG. 43, BR1 (Biorep 1)) | FC (Jurkat cells; FIG. 43, BR1 (Biorep 1)) | At 10 uM (Jurkat cells; FIG. 43, BR1 (Biorep 1)) | Basal (Jurkat cells; FIG. 43, BR2 (Biorep 2)) | FC (Jurkat cells; FIG. 43, BR2 (Biorep 2)) | At 10 uM (Jurkat cells; FIG. 43, BR2 (Biorep 2)) | FC (Jurkat cells; tacrolimus, FIGS. 29 and 30) | Fold Change (Jurkat cells; tacrolimus) | other results
1 | FKBP-203: FKBP13 DRD-AcGFP construct of Table 10 (protein, Description of sequence: Construct Name: FKBP-203; Mutation(s): Q72R Q84E A117W V85R DRD M54A P75L) HCPIKSRKGDVLHAHYTGKLEDGTEFDSSLPRNQLFVFSLGTGERIKGWDQGLLGMCEGEKRKLVIPSELGYGERGWPPKIPGGATLVFEVELLKIER | 657 nM | 66.0 | 747 nM | – | – | – | – | – | – | – | – | – | – | – | –
2 | FKBP-204 (protein, Description of sequence: Construct Name: FKBP-204; Mutation(s): Q72R Q84E A117W V85R DRD M54A D90A) HCPIKSRKGDVLHAHYTGKLEDGTEFDSSLPRNQPFVFSLGTGERIKGWAQGLLGMCEGEKRKLVIPSELGYGERGWPPKIPGGATLVFEVELLKIER | 15200 nM | 37.9 | 15500 nM | – | – | – | – | – | – | – | – | – | – | – | –
3 | FKBP-205 (protein, Description of sequence: Construct Name: FKBP-205; Mutation(s): Q72R Q84E A117W V85R DRD M54A L104V) HCPIKSRKGDVLHAHYTGKLEDGTEFDSSLPRNQPFVFSLGTGERIKGWDQGLLGMCEGEKRKVVIPSELGYGERGWPPKIPGGATLVFEVELLKIER | 183 nM | 30.1 | 184 nM | – | – | – | – | – | – | – | – | – | – | – | –
4 | FKBP-256: FKBP13 DRD-AcGFP construct of Table 10 (protein, Description of sequence: Construct Name: FKBP-256; Mutation(s): Q72R Q84E A117W V85R DRD E137M) HCPIKSRKGDVLHMHYTGKLEDGTEFDSSLPRNQPFVFSLGTGERIKGWDQGLLGMCEGEKRKLVIPSELGYGERGWPPKIPGGATLVFEVELLKIMR | – | – | – | 111 | 65 | 6851 | 110 | 71.46 | 7861 | 125 | 59.04 | 7380 | 78 | 78 | –
5 | FKBP-257: FKBP13 DRD-AcGFP construct of Table 10 (protein, Description of sequence: Construct Name: FKBP-257; Mutation(s): Q72R Q84E A117W V85R DRD E137F) HCPIKSRKGDVLHMHYTGKLEDGTEFDSSLPRNQPFVFSLGTGERIKGWDQGLLGMCEGEKRKLVIPSELGYGERGWPPKIPGGATLVFEVELLKIFR | – | – | – | 98 | 59 | 5501 | 107 | 59.79 | 6397 | 118 | 50.39 | 5946 | 65 | 65 | –
6 | FKBP-259: FKBP13 DRD-AcGFP construct of Table 10 (protein, Description of sequence: Construct Name: FKBP-259; Mutation(s): Q72R Q84E A117W V85R DRD E130K) HCPIKSRKGDVLHMHYTGKLEDGTEFDSSLPRNQPFVFSLGTGERIKGWDQGLLGMCEGEKRKLVIPSELGYGERGWPPKIPGGATLVFKVELLKIER | – | – | – | – | – | – | – | – | – | – | – | – | 103 | 103 | Basal (Jurkat cells; FIG. 40): 72.3; FC (Jurkat cells; FIG. 40): 90; Peak (Jurkat cells; FIG. 40): 6232; Basal (Jurkat cells; FIG. 47, BR1 (Biorep 1)): 70.7; FC (Jurkat cells; FIG. 47, BR1 (Biorep 1)): 95.97; At 10 uM (Jurkat cells; FIG. 47, BR1 (Biorep 1)): 6785; Basal (Jurkat cells; FIG. 47, BR2 (Biorep 2)): 77.3; FC (Jurkat cells; FIG. 47, BR2 (Biorep 2)): 84.76; At 10 uM (Jurkat cells; FIG. 47, BR2 (Biorep 2)): 6552
